Target: CD28 on the surface of PBMCs and T cells (human) (UniProt P10747)
Experiment: flow cytometry; CD28 positive fraction after Fab-multimer magnetic selection, D-biotin release and washing; remaining CD28.3 Fab monomers detected with the α-Ig kappa mAb; live (PI-negative) CD3+ cells; right dot plot

percentage of cells within gate: 5.91%
Substance: αCD28 Fab fragment derived from the anti-human CD28 antibody CD28.3, heavy chain C-terminally fused to Twin-Strep-tag (monomeric Fab)

— patent US20260242729A1
